According to EP0251446B1, “Non-human Carbonyl hydrolase mutants, DNA sequences and vectors encoding same and hosts transformed with said vectors” (GENENCOR INTERNATIONAL, INC., priority 1986, dated 1988):
Where a chain is given by its changes, count along the chain named. Numbers in names are those of the source.

Assays:
Assay type in all cases: biochemical, B. amyloliquefaciens
[1] = substrate: C[C@H](NC(=O)CCC(=O)O)C(=O)N[C@@H](C)C(=O)N1CCC[C@H]1C(=O)N[C@@H](Cc1ccccc1)C(=O)Nc1ccc([N+](=O)[O-])cc1; experiment: Kinetics of p-nitroanilide substrate hydrolysis, Q156/K166; settings: other: Table XIII, Q156/K166; synthetic substrate with label as P-1 residue
Description: (§1) Wild-type subtilisin was purified from B. subtilis culture supernatants expressing the B. amyloliquefaciens subtilisin gene (Wells, J.A., et al. (1983) Nucleic Acids Res. 11, 7911-7925) as previously described (Estell, D.A., et al. (1985) J. Biol. Chem. 260, 6518-6521). Details of the synthesis of tetrapeptide substrates having the form succinyl-L-AlaL-AlaL-ProL-[X]-p-nitroanilide (where X is the P1 amino acid) are described by DelMar, E.G., et al. (1979) Anal. Biochem. 99, 316-320. Kinetic parameters, Km(M) and kcat-(s-^1) were measured using a modified progress curve analysis (Estell, D.A., et al. (1985) J. Biol. Chem. 260, 6518-6521). Briefly, plots of rate versus product concentration were fit to the differential form of the rate equation using a non-linear regression algorithm. Errors in kcat and Km for all values reported are less than five percent. The various substrates in Table VIII are ranged in order of decreasing hydrophobicity. Nozaki, Y. (1971), J. Biol. Chem. 246, 2211-2217; Tanford C. (1978) Science 200, 1012).
(§2) The multiple mutants were produced by combining fragments 1, 2 and 3 as described in Example 8. The mutants Q156/K166 and S156/K166 were selectively generated by differential phosphorylation as described. Alternatively, the double 156/166 mutants, c.f. Q156/K166 and S156/K166, were prepared by ligation of the 4.6kb Sacl-BamHI fragment from the relevant p156 plasmid containing the 0.6kb Sacl-BamHI fragment from the relevant p166 plasmid.
(§3) These mutants, the single mutant K166, and the S156 and Q156 mutants of Example 8 were analyzed for substitute specificity against synthetic polypeptides containing Phe or Glu as the P-1 substrate residue.
(§4) To isolate the contribution of electrostatics to substrate specificity from other chemical binding forces, these various single and double mutants were analyzed for their ability to bind and cleave synthetic substrates containing Glu, Gln, Met and Lys as the P-1 substrate amino acid. This permitted comparisons between side-chains that were more sterically similar but differed in charge (e.g., Glu versus Gln, Lys versus Met). Similarly, mutant enzymes were assayed against homologous P-1 substrates that were most sterically similar but differed in charge (Table XIV).

[2] = substrate: C[C@H](NC(=O)CCC(=O)O)C(=O)N[C@@H](C)C(=O)N1CCC[C@H]1C(=O)N[C@@H](CCCCN)C(=O)Nc1ccc([N+](=O)[O-])cc1; experiment: as above; settings: other: Table XIV, 156 Gln / 166 Lys; value in parentheses; synthetic substrate with label as P-1 amino acid
Description: as §1, §2, §3, §4

[3] = substrate: C[C@H](NC(=O)CCC(=O)O)C(=O)N[C@@H](C)C(=O)N1CCC[C@H]1C(=O)N[C@@H](CCC(N)=O)C(=O)Nc1ccc([N+](=O)[O-])cc1; experiment: as above; settings: other: Table XIV, 156 Gln / 166 Lys; value in parentheses; synthetic substrate with label as P-1 amino acid
Description: as §1, §2, §3, §4

[4] = substrate: CSCC[C@H](NC(=O)[C@@H]1CCCN1C(=O)[C@H](C)NC(=O)[C@H](C)NC(=O)CCC(=O)O)C(=O)Nc1ccc([N+](=O)[O-])cc1; experiment: as above; settings: other: Table XIV, 156 Gln / 166 Lys; value in parentheses; synthetic substrate with label as P-1 amino acid
Description: as §1, §2, §3, §4

[5] = substrate: C[C@H](NC(=O)CCC(=O)O)C(=O)N[C@@H](C)C(=O)N1CCC[C@H]1C(=O)N[C@@H](CCC(=O)O)C(=O)Nc1ccc([N+](=O)[O-])cc1; experiment: as above
Description: as §1, §2, §3, §4

[6] = substrate: C[C@H](NC(=O)CCC(=O)O)C(=O)N[C@@H](C)C(=O)N1CCC[C@H]1C(=O)N[C@@H](CCCCN)C(=O)Nc1ccc([N+](=O)[O-])cc1; experiment: Kinetics of p-nitroanilide substrate hydrolysis, D166; settings: other: Table XIV, 156 Glu / 166 Asp; value in parentheses; synthetic substrate with label as P-1 amino acid
Description: as §1
(§5) The construction of subtilisin mutants containing the substitution of the ionic amino acids Asp, Asn, Gln, Lys and Ang are disclosed in EPO Publication No. 0130756. The present example describes the construction of the mutant subtilisin containing Glu at position 166 (E166) and presents substrate specificity data on these mutants. Further data on position 166 and 156 single and double mutants is presented infra.
(§6) Each of these mutants was analyzed with the tetrapeptide substrates, succinyl-L-AlaL-AlaProL-X-p-nitroanilide, where X was Phe, Ala and Glu.

[7] = substrate: C[C@H](NC(=O)CCC(=O)O)C(=O)N[C@@H](C)C(=O)N1CCC[C@H]1C(=O)N[C@@H](CCC(N)=O)C(=O)Nc1ccc([N+](=O)[O-])cc1; experiment: as above; settings: other: Table XIV, 156 Glu / 166 Asp; value in parentheses; synthetic substrate with label as P-1 amino acid
Description: as §1, §5, §6

[8] = substrate: CSCC[C@H](NC(=O)[C@@H]1CCCN1C(=O)[C@H](C)NC(=O)[C@H](C)NC(=O)CCC(=O)O)C(=O)Nc1ccc([N+](=O)[O-])cc1; experiment: as above; settings: other: Table XIV, 156 Glu / 166 Asp; value in parentheses; synthetic substrate with label as P-1 amino acid
Description: as §1, §5, §6

[9] = substrate: C[C@H](NC(=O)CCC(=O)O)C(=O)N[C@@H](C)C(=O)N1CCC[C@H]1C(=O)N[C@@H](CCCCN)C(=O)Nc1ccc([N+](=O)[O-])cc1; experiment: Kinetics of p-nitroanilide substrate hydrolysis, E166; settings: other: Table XIV, 156 Glu / 166 Glu; value in parentheses; synthetic substrate with label as P-1 amino acid
Description: as §1, §5
(§7) pΔ166, described in Example 3, was digested with Sacl and Xmal. The double strand DNA cassette (underlined and overlined) of line 4 in Figure 13 contained the triplet GAA for the codon 166 to encode the replacement of Glu for Gly166. This mutant plasmid designated […] was propagated in BG2036 as described. This mutant subtilisin, together with the other mutants containing ionic substituent amino acids at residue 166, were isolated as described and further analyzed for variations in substrate specificity.
as §6

[10] = substrate: C[C@H](NC(=O)CCC(=O)O)C(=O)N[C@@H](C)C(=O)N1CCC[C@H]1C(=O)N[C@@H](CCC(N)=O)C(=O)Nc1ccc([N+](=O)[O-])cc1; experiment: as above; settings: other: Table XIV, 156 Glu / 166 Glu; value in parentheses; synthetic substrate with label as P-1 amino acid
Description: as §1, §5, §7, §6

[11] = substrate: CSCC[C@H](NC(=O)[C@@H]1CCCN1C(=O)[C@H](C)NC(=O)[C@H](C)NC(=O)CCC(=O)O)C(=O)Nc1ccc([N+](=O)[O-])cc1; experiment: as above; settings: other: Table XIV, 156 Glu / 166 Glu; value in parentheses; synthetic substrate with label as P-1 amino acid
Description: as §1, §5, §7, §6

[12] = other: Table XIII, Q156/K166, synthetic substrate with label as P-1 residue

B1: B. amyloliquefaciens subtilisin variant Q156/K166 (Bacillus amyloliquefaciens; E263Q/G273K) (protein)
chain: AQSVPYGVSQIKAPALHSQGYTGSNVKVAVIDSGIDSSHPDLKVAGGASMVPSETNPFQDNNSHGTHVAGTVAALNNSIGVLGVAPSASLYAVKVLGADGSGQYSWIINGIEWAIANNMDVINMSLGGPSGSAALKAAVDKAVASGVVVVAAAGNQGTSGSSSTVKYPGKYPSVIAVGAVDSSNQRASFSSVGPELDVMAPGVSIQSTLPGNKYGAYNGTSMASPHVAGAAALILSKHPNWTNTQVRSSLENTTTKLGDSFYYGKGLINVQAAAQ
notes: at various amino acid residues within the mature form of the subtilisin molecule; made in house
B1 was tested, and the Km [1] was 19 µM, the kcat [1] was 30.00 s-^1 and the kcat/Km [1] was 1.6e+06 M⁻¹ s⁻¹. For the same protein, the Km [2] was 1780 µM, the Km [3] was 209 µM and the Km [4] was 20.9 µM. The Km [5, 12] was 31 µM, the kcat [5, 12] was 1.60 s-^1 and the kcat/Km [5, 12] was 50000 M⁻¹ s⁻¹. The Km ([5]; other: Table XIV, 156 Gln / 166 Lys, value in parentheses, synthetic substrate with label as P-1 amino acid) was 31.6 µM.

B2: B. amyloliquefaciens subtilisin variant D166 (Gly166 to Asp) (Bacillus amyloliquefaciens; G273D) (protein)
chain: B1 chain with Q156E, K166D
notes: at various amino acid residues within the mature form of the subtilisin molecule; made in house; host or cells: Bacillus subtilis BG2036
B2 gave a Km [6] of 1000 µM, a Km [7] of 2750 µM and a Km [8] of 1820 µM.

B3: B. amyloliquefaciens subtilisin variant E166 (Gly166 to Glu) (Bacillus amyloliquefaciens; G273E) (protein)
chain: B1 chain with Q156E, K166E
notes: as for B2
In the case of B3, the Km [9] is reported as 204 µM, the Km [10] is reported as 1230 µM and the Km [11] is reported as 525 µM.
